# Measurements reported in paper PMC2937569 (Biochemistry, 2010).
# Positions count from the first letter of the chain named. Names may count otherwise.
# B1: wild-type (WT) RDS (retinal degeneration slow; Peripherin/rds), recombinant in COS-1 cells (natural protein, murine, UniProt P15499 1-346, looked up)
# chain: MALLKVKFDQKKRVKLAQGLWLMNWLSVLAGIVLFSLGLFLKIELRKRSEVMNNSESHFVPNSLIGVGVLSCVFNSLAGKICYDALDPAKYAKWKPWLKPYLAVCIFFNVILFLVALCCFLLRGSLESTLAYGLKNGMKYYRDTDTPGRCFMKKTIDMLQIEFKCCGNNGFRDWFEIQWISNRYLDFSSKEVKDRIKSNVDGRYLVDGVPFSCCNPSSPRPCIQYQLTNNSAHYSYDHQTEELNLWLRGCRAALLNYYSSLMNSMGVVTLLVWLFEVSITAGLRYLHTALESVSNPEDPECESEGWLLEKSVPETWKAFLESFKKLGKSNQVEAEGADAGPAPEAG
# B2: N244K RDS, recombinant in COS-1 cells (natural protein, murine, UniProt P15499 1-346, looked up)
# chain: B1 chain with N244K
# B3: N244H RDS, recombinant in COS-1 cells (natural protein, murine, UniProt P15499 1-346, looked up)
# chain: B1 chain with N244H
# Legend:
# [1] = biological target: the molecule itself; experiment: non-reducing SDS-PAGE/Western blot
# [2] = biological target: the molecule itself; experiment: velocity sedimentation on a sucrose gradient
Protein,stoichiometry N [1],stoichiometry N [2]
B1,2,4
B2,–,4
B3,2,4
